Reference: patent publication US20250042994A1 (HAINAN SIMCERE ZAIMING PHARMACEUTICAL, published 2025)
Changes are numbered by the printed parent chain. Blank lines part the entries; values can stand above or below the binder they belong to.

Assays:
[1] = target: T1, human CD19 on CHO-K1-human CD19 cells (human, UniProt P15391 20-556); assay: FACS on CHO-K1-human CD19 cells
T1 construct: whole, on cells; also called CHO-K1-human CD19-2C8
T1 sequence (looked up): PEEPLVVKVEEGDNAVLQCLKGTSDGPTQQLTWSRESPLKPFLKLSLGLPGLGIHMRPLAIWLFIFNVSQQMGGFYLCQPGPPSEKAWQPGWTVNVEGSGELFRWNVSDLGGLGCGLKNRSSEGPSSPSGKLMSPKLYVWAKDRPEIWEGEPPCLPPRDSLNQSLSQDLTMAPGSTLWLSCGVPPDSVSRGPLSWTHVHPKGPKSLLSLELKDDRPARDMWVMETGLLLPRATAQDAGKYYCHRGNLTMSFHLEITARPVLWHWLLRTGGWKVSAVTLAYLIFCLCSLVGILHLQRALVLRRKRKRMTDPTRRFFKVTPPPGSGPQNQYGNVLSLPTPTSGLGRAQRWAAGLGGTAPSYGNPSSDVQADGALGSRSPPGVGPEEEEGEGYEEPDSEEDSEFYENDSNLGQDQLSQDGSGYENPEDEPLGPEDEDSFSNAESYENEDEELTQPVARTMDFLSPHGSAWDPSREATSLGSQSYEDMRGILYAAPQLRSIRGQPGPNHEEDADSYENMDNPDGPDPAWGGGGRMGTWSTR

[2] = target: T2, monkey CD19 on HEK293T-monkey CD19 cells (monkey); assay: FACS on HEK293T-monkey CD19 cells
T2 construct: whole, on cells
Procedure, shortened: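 Antibody binding was read as MFI by flow cytometry and EC50 was taken from curve fitting. Before that, cells at 2×10⁶ cells/ml in PBS with 2% (w/w) BSA were exposed to samples for 2 h on ice and washed. Parental HEK293T cells were tested the same way.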

human CD19 on Raji cells = target: T3, human CD19 on Raji cells (human, UniProt P15391 20-556); assay: FACS on Raji cells
T3 construct: whole, on cells
T3 sequence (looked up): T1 sequence (looked up)

[3] = target: T4, cynomolgus monkey CD19 on peripheral blood B cells (cynomolgus monkey (Macaca fascicularis), UniProt A0A2K5W8L9 20-557); assay: FACS, cynomolgus PBMC, CD20+ B cells
T4 construct: whole, on cells; also called cynomolgus monkey B cells
T4 sequence: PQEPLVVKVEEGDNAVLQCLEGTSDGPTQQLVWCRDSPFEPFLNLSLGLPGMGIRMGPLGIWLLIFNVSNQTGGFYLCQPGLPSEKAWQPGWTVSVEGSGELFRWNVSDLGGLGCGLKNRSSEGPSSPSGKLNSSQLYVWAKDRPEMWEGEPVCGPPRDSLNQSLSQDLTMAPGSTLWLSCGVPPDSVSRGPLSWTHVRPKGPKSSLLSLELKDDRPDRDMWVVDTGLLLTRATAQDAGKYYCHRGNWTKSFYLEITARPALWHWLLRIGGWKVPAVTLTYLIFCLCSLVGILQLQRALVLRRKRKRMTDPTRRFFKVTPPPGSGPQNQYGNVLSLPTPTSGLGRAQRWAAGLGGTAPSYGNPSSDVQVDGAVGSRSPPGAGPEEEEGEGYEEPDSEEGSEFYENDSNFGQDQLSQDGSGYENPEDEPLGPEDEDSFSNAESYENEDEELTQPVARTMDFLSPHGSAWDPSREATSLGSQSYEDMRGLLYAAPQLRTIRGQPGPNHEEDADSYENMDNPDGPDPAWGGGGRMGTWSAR

B1: F4.35.5 (antibody, human IgG1, V domains shown)
VH: EIQLQQSGPELVKPGASVKVSCKASGYAFTSYNMYWVKQSHGKSLEWIGYIDPYNGDTRYNQKFKGKATLTVDKSSSTAYMHLNSLTSEDSAVYYCTRSGTGRDYWGQGTTLTVSS
VL: QIVLTQSPAIMSASPGEKVTMTCSASSSISYMFWFQQKPGSSPRLLIYDTSSLASGVPVRFSGSGSGTSYTLTISRMEAEDAATYYCQQWSNYPYTFGGGTKLEMK
notes: human-murine chimeric antibody, human IgG1
EC50 [1]: 1.08 nM | Maximum mean fluorescence intensity [1]: 50000 | Maximum mean fluorescence intensity [2]: 70 | EC50 (human CD19 on Raji cells): 0.69 nM | Maximum mean fluorescence intensity (human CD19 on Raji cells): 25000 | Proportion of chimeric antibody positive cells to B cells (%) at 1 nM [3]: 1% | Proportion of chimeric antibody positive cells to B cells (%) at 10 nM [3]: 2% | Proportion of chimeric antibody positive cells to B cells (%) at 100 nM [3]: 3%

B2: F4.18.13 (antibody, human IgG1, V domains shown)
VH: QVQLQQSGPELVKPGASVKISCKASGYAFSSFWMNWVKQRPGEGLEWIGRIYPGDGDTNYNGKFKGKATLTADDSSSTAYMQLSSLTSVDSAVYFCAREVIAAVVTTDFDYWGQGTTLTVSS
VL: DIQMTQTTSSLSASLGDRVTISCRTSQDISNYLNWYLQKPDGTVKLLIYYTSGLHSGVPSRFSGSGSGTDYSLTISNLEPEDIATYFCQQGKTLPYTFGGGTKLEIK
notes: as for B1
EC50 [1]: 0.6 nM | Maximum mean fluorescence intensity [1]: 51600 | EC50 [2]: 26.2 nM | Maximum mean fluorescence intensity [2]: 19700 | EC50 (human CD19 on Raji cells): 1.31 nM | Maximum mean fluorescence intensity (human CD19 on Raji cells): 35200 | Proportion of chimeric antibody positive cells to B cells (%) at 1 nM [3]: 2% | Proportion of chimeric antibody positive cells to B cells (%) at 10 nM [3]: 8% | Proportion of chimeric antibody positive cells to B cells (%) at 100 nM [3]: 21%

B3: F4.41.1 (antibody, human IgG1, V domains shown)
VH: QVQLQQSGAELVRPGTSVKVSCKASGYAFTNYLIEWVKQRPGQGLEWIGVINPGSGDTLYNEKFKGKATLTADKSSTTAYMQLSGLTSDVSAIYFCARSPPITTIVADYFDYWGQGTTLTVSS
VL: B2 VL with T25A, L37Q, G53R, T69A, P80Q
notes: as for B1
EC50 [1]: 1.49 nM | Maximum mean fluorescence intensity [1]: 48600 | Maximum mean fluorescence intensity [2]: 545 | EC50 (human CD19 on Raji cells): 1.02 nM | Maximum mean fluorescence intensity (human CD19 on Raji cells): 23400 | Proportion of chimeric antibody positive cells to B cells (%) at 1 nM [3]: 1% | Proportion of chimeric antibody positive cells to B cells (%) at 10 nM [3]: 2% | Proportion of chimeric antibody positive cells to B cells (%) at 100 nM [3]: 2%

B6: F4.33.12 (antibody, human IgG1, V domains shown)
VH: QVQLQQSGAELVRPGSSVKISCKGSGYAFSSYWMNWVKQRPGQGLEWIGQIYPGDGDTNYNGKFKGKATLTADKSSSTAYMQLSSLTSEDSAVYFCARAGFYYGSDSSMDYWGQGTSVTVSS
VL: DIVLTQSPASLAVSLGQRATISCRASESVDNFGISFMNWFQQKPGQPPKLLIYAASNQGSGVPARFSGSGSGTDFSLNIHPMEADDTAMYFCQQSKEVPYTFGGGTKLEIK
notes: as for B1
EC50 [1]: 1.47 nM | Maximum mean fluorescence intensity [1]: 52500 | Maximum mean fluorescence intensity [2]: 50 | EC50 (human CD19 on Raji cells): 2.6 nM | Maximum mean fluorescence intensity (human CD19 on Raji cells): 28200 | Proportion of chimeric antibody positive cells to B cells (%) at 1 nM [3]: 1% | Proportion of chimeric antibody positive cells to B cells (%) at 10 nM [3]: 1% | Proportion of chimeric antibody positive cells to B cells (%) at 100 nM [3]: 2%

B7: F3.133.14 (antibody, human IgG1, V domains shown)
VH: QVQLQQPGAELVMPGASVKLSCKASGYTFTNYWMHWVKQRPGQGLEWIGEIDPSDYYANYNQKFKGKATLTVDKSSSTAYMQLSSLTSEDSAVYYCARSHYYANSYNYWGQGTTLTVSS
VL: EIELTQSPTTMAASPGEKITITCSASSSISSDYLHWYQQKPGFSPKLLIYRTSNLASGLPARFSGSGSGTSYSLTIGTMEAEDVATYYCQQGSSVPRMLTFGAGTKLELK
notes: as for B1
EC50 [1]: 0.82 nM | Maximum mean fluorescence intensity [1]: 63100 | EC50 [2]: 2.47 nM | Maximum mean fluorescence intensity [2]: 138000 | EC50 (human CD19 on Raji cells): 0.93 nM | Maximum mean fluorescence intensity (human CD19 on Raji cells): 34400 | Proportion of chimeric antibody positive cells to B cells (%) at 1 nM [3]: 1% | Proportion of chimeric antibody positive cells to B cells (%) at 10 nM [3]: 1% | Proportion of chimeric antibody positive cells to B cells (%) at 100 nM [3]: 7%

B9: F4.21.2 (antibody, human IgG1, V domains shown)
VH: QVQLKQSGPGLVQPSQSLSITCTVSGFSLSTYGVHWVRQSPGRGLEWLGVIWIGGTTDYNAAFISRLTISKDNSRGQVFFKMDSLQANDTAIYYCARKGYYKYDGGYYYAMDYWGQGTSVTVSS
VL: DIQMTQSSSYLSVSLGGRVTITCKASDHINNWLAWYQQKPGNAPWLLISGATSLETGVPSRFSGSGSGKDYTLSISSLQTEDVATYYCQQYWSTPLTFGAGTKLELK
notes: as for B1
EC50 [1]: 1.02 nM | Maximum mean fluorescence intensity [1]: 52600 | EC50 [2]: 9.1 nM | Maximum mean fluorescence intensity [2]: 39200 | EC50 (human CD19 on Raji cells): 2.69 nM | Maximum mean fluorescence intensity (human CD19 on Raji cells): 30800 | Proportion of chimeric antibody positive cells to B cells (%) at 1 nM [3]: 2% | Proportion of chimeric antibody positive cells to B cells (%) at 10 nM [3]: 3% | Proportion of chimeric antibody positive cells to B cells (%) at 100 nM [3]: 18%

Stronger by EC50 [1], values ahead:

EC50 [1]: 0.1 nM | Maximum mean fluorescence intensity [1]: 14700 | EC50 [2]: ~129 nM | Maximum mean fluorescence intensity [2]: 7380 | EC50 (human CD19 on Raji cells): 0.67 nM | Maximum mean fluorescence intensity (human CD19 on Raji cells): 27300 | Proportion of chimeric antibody positive cells to B cells (%) at 1 nM [3]: 2% | Proportion of chimeric antibody positive cells to B cells (%) at 10 nM [3]: 2% | Proportion of chimeric antibody positive cells to B cells (%) at 100 nM [3]: 12%
B8: F4.22.6 (antibody, human IgG1, V domains shown)
VH: QVQLQQSGPELVKPGASVKISCKASGYAFSSFWMNWVKQRPGQGLEWIGRIYPGDGDTNYNGKFKGKATLTADKSSTTAYMHLSSLTSVDSAVYFCTRSVITAVVDWYFDVWGAGTTVTVSS
VL: QIVLSQSPAILSASPGEKVTLTCRASSSVNFMHWYQQKPGSSPKPWIYATSNLASGAPARFSGSGSGTSYSLTISRVEAEDAAAYYCQQWSSYPIFTFGSGTKLEIK
notes: as for B1

EC50 [1]: 0.08 nM | Maximum mean fluorescence intensity [1]: 14800 | Maximum mean fluorescence intensity [2]: 662 | EC50 (human CD19 on Raji cells): 0.56 nM | Maximum mean fluorescence intensity (human CD19 on Raji cells): 26000 | Proportion of chimeric antibody positive cells to B cells (%) at 1 nM [3]: 2% | Proportion of chimeric antibody positive cells to B cells (%) at 10 nM [3]: 2% | Proportion of chimeric antibody positive cells to B cells (%) at 100 nM [3]: 3%
B4: F4.4.6 (antibody, human IgG1, V domains shown)
VH: QVQLQQSGAELARPGASVKLSCKASGYTFTSYWMQWVKQRPGQGLEWIGAIYPGDGDSRYTQKFKGKATLTADKSSSTAYMQLSSLASEDSAVYYCARSTTTVLGNNFEYWGQGTTLTVSS
VL: QIVLTQSPAIMSALPGEKVTMTCSASSSVSSMHWYQQKSGTSPKRWIYDTSKLASGVPARFSGSGSGTSYSLTISSMEAEDAATYYCQQWSSNPWTFGGGTKLEIK
notes: as for B1

EC50 [1]: ~0.035 nM | Maximum mean fluorescence intensity [1]: 8490 | Maximum mean fluorescence intensity [2]: 58 | EC50 (human CD19 on Raji cells): 0.51 nM | Maximum mean fluorescence intensity (human CD19 on Raji cells): 24600 | Proportion of chimeric antibody positive cells to B cells (%) at 1 nM [3]: 2% | Proportion of chimeric antibody positive cells to B cells (%) at 10 nM [3]: 2% | Proportion of chimeric antibody positive cells to B cells (%) at 100 nM [3]: 6%
B5: F4.37.6 (antibody, human IgG1, V domains shown)
VH: QVQLQQSGAELARPGASVKLSCKASGYTFTSFWMQWLKQRPGQGLEWIGTIYPGDGDTRYTQKFKGKATLTADKSSNTAYMQLSSLASEDSAVYYCARGALSNYGGFAYWGQGTLVTVSA
VL: NIVLTQSPASLAVSLGQRATISCRASESVDSYGHSFMHWYQQKPGQPPKLLIYLASNLESGVPARFSGSGSRTDFTLTIDPVEADDAATYYCQQNNEDPWTFGGGTKLEIK
notes: as for B1
